Patent publication US20150064204A1 (Amgen, published 2015)
Residue numbers refer to the chain shown, from its start.

T1: human GITR (human, UniProt Q9Y5U5 26-241)
T1 sequence: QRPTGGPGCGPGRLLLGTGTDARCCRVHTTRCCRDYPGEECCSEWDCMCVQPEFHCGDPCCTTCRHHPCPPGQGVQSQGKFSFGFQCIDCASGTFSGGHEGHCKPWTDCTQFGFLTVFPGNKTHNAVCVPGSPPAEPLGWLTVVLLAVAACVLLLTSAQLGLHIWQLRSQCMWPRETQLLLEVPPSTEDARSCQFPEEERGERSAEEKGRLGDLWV

B1: 7A10 (antibody, human IgG1, kappa, V domains shown)
VH: QVQLVESGGGVVQPGRSLRLSCAASGFTFSSYGMHWVRQAPGKGLEWMAVIWYVGSNKYYADSVKGRFTISRDNSKNTLYLQMNSLSAEDTAVYYCARGGELGRDYYSGMDVWGQGTTVTVSS
VL: DIQMTQSPSSLSASVGDRVTITCRASQGIRNDLGWYQQKPGKAPKRLIYAASSLQSGVPSRFSGSGSGTEFTLTISSLQPEDFATYYCQQHNSYPWTFGQGTKVEIKR
notes: Parental fully human antibody; also called Ab18; SS-10944
B2: 33C9v1 (antibody, human IgG1, kappa, V domains shown)
VH: B1 VH with L4V, M48V, A49S, V54E, S87R, E101L, R104Y, D105Y, S108Y
VL: B1 VL with R46L, A50D, Q89L, N92H
notes: Engineered variant; also called Ab50; SS-16948
B3: 33C9v5 (antibody, human IgG1, kappa, V domains shown)
VH: B1 VH with L4V, M48V, A49S, V54E, S63T, S87R, E101L, R104Y, D105Y, S108Y
VL: B1 VL with R46L, A50D, Q89L, N92H
notes: Engineered variant; also called Ab54; SS-16951
B4: 33C9v4 (antibody, human IgG1, kappa, V domains shown)
VH: B1 VH with L4V, M48V, A49S, V54E, D62E, S87R, E101L, R104Y, D105Y, S108Y
VL: B1 VL with R46L, A50D, Q89L, N92H
notes: Engineered variant; also called Ab53; SS-16950
B5: 33C9v3 (antibody, human IgG1, kappa, V domains shown)
VH: B1 VH with L4V, M48V, A49S, V54E, S63T, S87R, E101L, R104Y, D105Y, S108Y
VL: B1 VL with A50D, Q89L, N92H
notes: Engineered variant; also called Ab52; SS-16949
B6: 7A10v2 (antibody, human IgG1, kappa, V domains shown)
VH: B1 VH with S87R
VL: B1 VL with R46L
notes: Engineered variant; also called Ab40; SS-16938
B7: 33C9 (antibody, human IgG1, kappa, V domains shown)
VH: B1 VH with L4V, M48V, A49S, V54E, S87R, E101L, R104Y, D105Y, S108Y
VL: B1 VL with A50D, Q89L, N92H
notes: Parental fully human antibody; also called Ab2; SS-12413
B8: 7A10v3 (antibody, human IgG1, kappa, V domains shown)
VH: B1 VH with D62E, S87R
VL: B1 VL
notes: Engineered variant; also called Ab41; SS-16939
B9: 9H6v2 (antibody, human IgG1, kappa, V domains shown)
VH: B1 VH with A23V, V37I, M48V, V54E, S87R, E101R, R104K
VL: B1 VL with R46L, A51T, Q89L, S93T
notes: Engineered variant; also called Ab45; SS-16944
B10: 41G5v5 (antibody, human IgG1, kappa, V domains shown)
VH: B1 VH with M48V, V54P, S63T, S87R, D105Y, S108Y
VL: B1 VL with I21V, R46L, Q89L, S93N, E105D
notes: Engineered variant; also called Ab59; SS-16955
B11: 7A10v5 (antibody, human IgG1, kappa, V domains shown)
VH: B1 VH with D62E, S87R
VL: B1 VL with R46L
notes: Engineered variant; also called Ab43; SS-16941
B12: 41G5v4 (antibody, human IgG1, kappa, V domains shown)
VH: B1 VH with M48V, V54P, D62E, S87R, D105Y, S108Y
VL: B1 VL with I21V, R46L, Q89L, S93N, E105D
notes: Engineered variant; also called Ab58; SS-16954
B13: 41G5v1 (antibody, human IgG1, kappa, V domains shown)
VH: B1 VH with M48V, V54P, S87R, D105Y, S108Y
VL: B1 VL with I21V, R46L, Q89L, S93N, E105D
notes: Engineered variant; also called Ab55; SS-16952
B14: 7A10v4 (antibody, human IgG1, kappa, V domains shown)
VH: B1 VH with S63T, S87R
VL: B1 VL
notes: Engineered variant; also called Ab42; SS-16940
B15: 9H6v4 (antibody, human IgG1, kappa, V domains shown)
VH: B1 VH with A23V, V37I, M48V, V54E, S63T, S87R, E101R, R104K
VL: B1 VL with A51T, Q89L, S93T
notes: Engineered variant; also called Ab47; SS-16945
B16: 9H6 (antibody, human IgG1, kappa, V domains shown)
VH: B1 VH with A23V, V37I, M48V, V54E, S87R, E101R, R104K
VL: B1 VL with K45N, A51T, Q89L, S93T
notes: Parental fully human antibody; also called Ab19; SS-10945
B17: 41G5 (antibody, human IgG1, kappa, V domains shown)
VH: B1 VH with M48V, V54P, S87R, D105Y, S108Y
VL: B1 VL with I21V, Q89L, S93N, E105D
notes: Parental fully human antibody; also called Ab7; SS-12428
B18: 9H6v5 (antibody, human IgG1, kappa, V domains shown)
VH: B1 VH with A23V, V37I, M48V, V54E, D62E, S87R, E101R, R104K
VL: B1 VL with R46L, A51T, Q89L, S93T
notes: Engineered variant; also called Ab48; SS-16946
B19: 41G5v3 (antibody, human IgG1, kappa, V domains shown)
VH: B1 VH with M48V, V54P, S63T, S87R, D105Y, S108Y
VL: B1 VL with I21V, Q89L, S93N, E105D
notes: Engineered variant; also called Ab57; SS-16953
B20: 9H6v6 (antibody, human IgG1, kappa, V domains shown)
VH: B1 VH with A23V, V37I, M48V, V54E, S63T, S87R, E101R, R104K
VL: B1 VL with R46L, A51T, Q89L, S93T
notes: Engineered variant; also called Ab49; SS-16947
B21: 9H6v1 (antibody, human IgG1, kappa, V domains shown)
VH: B1 VH with A23V, V37I, M48V, V54E, S87R, E101R, R104K
VL: B1 VL with A51T, Q89L, S93T
notes: Engineered variant; also called Ab44; SS-16943
B22: 5H7 (antibody, human IgG1, kappa, V domains shown)
VH: QVQLQESGPGLVKPSQTLSLTCTVSGGSISSGGYFWSWIRQHPGKGLEWIGYIYYSGTTYYNPSLKSRVTISIDTSKNHFSLKLSSVTAADTAVYYCARDLFYYDSSGPRGFDPWGQGTLVTVSS
VL: EIVLTQSPGTLSLSPGERATLSCRASQTVSSNYLAWYQQKPGQAPRLLIYGSSTRATGIPDRFSGSGSGTDFTLTISRLEPEDFAVYYCQQYDSSPWTFGQGTKVEIKR
notes: Parental fully human antibody; also called Ab17; SS-10943
B23: 5H7v1 (antibody, human IgG1, kappa, V domains shown)
VH: B22 VH with Q16E, H42P, H79Q, D105E
VL: B22 VL
B24: 5H7v13 (antibody, human IgG1, kappa, V domains shown)
VH: B22 VH with Q16E, H42P, H79Q, S106T
VL: B22 VL with D93E
B25: 5H7v3 (antibody, human IgG1, kappa, V domains shown)
VH: B22 VH with Q16E, H42P, H79Q, D113E
VL: B22 VL
notes: Engineered variant; also called Ab27; SS-16913
B26: 5H7v5 (antibody, human IgG1, kappa, V domains shown)
VH: B22 VH with Q16E, H42P, H79Q, D105E, D113E
VL: B22 VL
B27: 5H7v10 (antibody, human IgG1, kappa, V domains shown)
VH: B22 VH with Q16E, H42P, H79Q
VL: B22 VL with D93E
B28: 5H7v17 (antibody, human IgG1, kappa, V domains shown)
VH: B22 VH with Q16E, H42P, H79Q, S106T
VL: B22 VL with S94T
B29: 5H7v11 (antibody, human IgG1, kappa, V domains shown)
VH: B22 VH with Q16E, H42P, H79Q
VL: B22 VL with S94T

What was measured:
human GITR [1] = biological target: T1, human GITR; assay: cell-based or functional assay
human GITR [2] = biological target: T1, human GITR; assay: flow cytometry on activated human T cells

Proliferation (Fold over CD3) (human GITR [1]) | Proliferation EC50 (human GITR [1]) | EC50 (human GITR [2]) | Binder
3.4 fold over CD3 | 0.012 µg/mL | 0.067 µg/mL | B1
2.1 fold over CD3 | 0.018 µg/mL | 0.078 µg/mL | B2
2.5 fold over CD3 | 0.018 µg/mL | 0.068 µg/mL | B3
2.6 fold over CD3 | 0.017 µg/mL | 0.082 µg/mL | B4
3.1 fold over CD3 | 0.025 µg/mL | 0.056 µg/mL | B5
0.7 fold over CD3 | 0.043 µg/mL | 0.861 µg/mL | B6
2.7 fold over CD3 | 0.01 µg/mL | 0.06 µg/mL | B7
55 fold over CD3 | 0.046 µg/mL | 0.003 µg/mL | B8
2.2 fold over CD3 | 0.019 µg/mL | 0.423 µg/mL | B9
2.5 fold over CD3 | 0.012 µg/mL | 0.064 µg/mL | B10
0.6 fold over CD3 | 0.02 µg/mL | 0.783 µg/mL | B11
2.2 fold over CD3 | 0.015 µg/mL | 0.068 µg/mL | B12
2.9 fold over CD3 | 0.017 µg/mL | 0.06 µg/mL | B13
60 fold over CD3 | 0.006 µg/mL | 0.002 µg/mL | B14
3.3 fold over CD3 | 0.007 µg/mL | 0.095 µg/mL | B15
3 fold over CD3 | 0.007 µg/mL | 0.134 µg/mL | B16
3.7 fold over CD3 | 0.004 µg/mL | 0.055 µg/mL | B17
1.9 fold over CD3 | 0.011 µg/mL | 0.38 µg/mL | B18
3.4 fold over CD3 | 0.007 µg/mL | 0.06 µg/mL | B19
1.5 fold over CD3 | 0.011 µg/mL | 0.411 µg/mL | B20
3.2 fold over CD3 | 0.004 µg/mL | 0.144 µg/mL | B21
3.4 fold over CD3 | 0.008 µg/mL | 0.303 µg/mL | B22
1 fold over CD3 | 0.033 µg/mL | – | B23
1.2 fold over CD3 | 0.113 µg/mL | – | B24
3.2 fold over CD3 | 0.015 µg/mL | 0.293 µg/mL | B25
1.4 fold over CD3 | 0.021 µg/mL | – | B26
0.6 fold over CD3 | 0.039 µg/mL | – | B27
3 fold over CD3 | 0.024 µg/mL | – | B28
2 fold over CD3 | 0.032 µg/mL | – | B29
